Test results as given in publication PMC6330322.

Experiments:
[1] = biological target: NrnC from Agrobacterium tumefaciens (Agrobacterium tumefaciens str. C58); assay: SEC; Superdex 200, 25 mM Tris-HCl pH 8.0, 100 mM NaCl; calibrated with Ec_RND, Tle1, conalbumin and aldolase; self-association, octamer
[2] = biological target: NrnC from Agrobacterium tumefaciens (Agrobacterium tumefaciens str. C58); assay: AUC; sedimentation velocity, 1 mg/mL At_NrnC in 25 mM Tris-HCl pH 8.0, 100 mM NaCl, without or with 5 mM MnCl2, 60,000 rpm, 20°C, Sedfit; self-association, octamer
[3] = biological target: NrnC from Agrobacterium tumefaciens (Agrobacterium tumefaciens str. C58); assay: crystal structure; apo and Mn2+-soaked crystals, space group I422, two protomers in the asymmetric unit; octamer from crystal packing, interfaces analysed with PISA

Measured: stoichiometry N

NrnC from Agrobacterium tumefaciens (enzyme)
8: all assays above
